The values below come from patent publication US20260201069A1, “ANTIBODIES THAT SPECIFICALLY BIND MODIFIED OLIGONUCLEOTIDES” (Hoffmann-La Roche Inc., priority 2024, published 2026).

Data set [1] concerns ASO 042. Kind of data set: SPR (BIAcore) binding kinetics and affinity. The conditions noted are these: analyte ASO 042, bivalent IgG format, 25° C. On the procedure:
(§1) In more detail, LNA binding of the antibodies according to the current invention was characterized by surface plasmon resonance (SPR) using a BIAcore instrument with a HEPES-based running and dilution buffer at 25° C. About 100-200 resonance units (RU) of an anti-LNA antibody with an Fc-region of the human IgG1 subclass and the mutations P329G, L234A and L235A (according to Kabat EU index; human IgG Fc-PGLALA) or an anti-LNA Fab fragment with human CL and CH1 (kappa, IgG1 isotype), respectively, was captured on the surface of a Series S Sensor Chip CM3 derivatized by standard amine coupling with either a mouse anti-human IgG Fc-PGLALA antibody or a goat anti-human F(ab′2) antibody with final total surface densities of approximately 5000 RU. Different LNA-modified ASOs were passed over the derivatized SPR chip surface by injecting the respective solutions in a 1:3 dilution series up to a final concentration of 1000 nM. Association was monitored for 3 min and dissociation for 5 min at a flow rate of 30 μl/min each. Bulk refractive index differences were corrected by subtracting blank injections and by subtracting the response obtained from the reference flow cell without captured antibody. Curve fitting was performed using the 1:1 Langmuir binding model within the BIAcore evaluation software.
(§2) To assess the binding specificities and affinities of the LNA-binding antibodies according to the current invention, surface plasmon resonance was used as described, e.g., in WO 2020/141117 and WO 2022/175217.
(§3) To assess the specificities and affinities of LNA-binding antibodies, surface plasmon resonance was done as described in WO 2020/141117 and WO 2022/175217. ASO binding was investigated by surface plasmon resonance (SPR) using a BIAcore T200 instrument (Cytiva). As a running and dilution buffer, HEPES buffered saline (HBS) containing 0.05% PS20 was used, the temperature was set to 25° C. For capturing anti-LNA Fabs or complete anti-LNA antibodies to a Series S Sensor Chip CM3 (Cytiva), either a mouse anti-human IgG antibody (Roche Diagnostics GmbH) or a goat anti-human F(ab′2) antibody (Jackson ImmunoResearch) was immobilized using standard amine coupling chemistry with final total surface densities of approximately 5000 resonance units (RU). The anti-LNA antibodies were captured to the surface by an injection for 30 sec., leading to response levels of approx. 100-200 RU. Different ASO molecules were injected in a 1:3 dilution series up to 1000 nM. Association was monitored for 3 min. and dissociation for 5 min. at a flow rate of 30 μl/min each. Subsequently, the surface was regenerated by injecting 10 mM NaOH (anti-human IgG antibody surface) or 10 mM Glycine pH 1.7 (anti-human IgG F(ab′2) antibody surface) for 60 sec. Bulk refractive index differences were corrected by subtracting blank injections and by subtracting the response obtained from the reference flow cell without captured antibody. Curve fitting was performed using the 1:1 Langmuir binding model within the BIAcore evaluation software.
On the technique in general: In SPR one partner is held on a chip, and binding of the other changes the refractive index at the surface.

Data set [2] has as its system ASO 297. Nature of the data set: SPR (BIAcore) binding kinetics and affinity. The conditions noted are these: analyte ASO 297, bivalent IgG format, 25° C. On the procedure:
as §1, §2, §3

Data set [3] concerns ASO 420. Nature of the data set: SPR (BIAcore) binding kinetics and affinity. The conditions noted are these: analyte ASO 420, bivalent IgG format, 25° C.; for Kd: read-out: K. On the procedure: as §1, §2, §3
Data set [4] relates to ASO 827. Kind of data set: SPR (BIAcore) binding kinetics and affinity. The conditions noted are these: analyte ASO 827, bivalent IgG format, 25° C. On the procedure:
as §1, §2, §3

Data set [5] concerns fusion 2489 (antibody-ASO 918 conjugate). Nature of the data set: SPR (BIAcore) binding kinetics and affinity. The conditions noted are these: analyte fusion 2489, bivalent IgG format, 25° C. On the procedure: as §1, §2, §3
For data set [6], the system named is fusion 2899 (antibody-ASO 918 conjugate). Nature of the data set: SPR (BIAcore) binding kinetics and affinity. The conditions noted are these: analyte fusion 2899, bivalent IgG format, 25° C. On the procedure: as §1, §2, §3
Data set [7] concerns LNA-modified ASOs and antibody-ASO conjugates. Nature of the data set: SPR binding. The conditions noted are these: summary in words. On the procedure: as §1
Further analyses of the pan anti-LNA antibody according to the invention produced by clone 1.9.21 a trivalent, bispecific format was used. This trivalent, bispecific format comprises an IgG1 Fc-region (with knobs-into-holes-cys1 mutations) to which at one of the N-termini of the Fc-region a germline Fab (DP47; SEQ ID NO: 137 and 138) has been fused and at both of the C-termini of the Fc-region each one anti-LNA Fab (fab 0699) according to the current invention produced by clone 1.9.21 has been fused (fusion 1861). […]
To assess the specificities and affinities of LNA-binding antibodies, surface plasmon resonance was done as described in WO 2020/141117 and WO 2022/175217. […] Association was monitored for 3 min. and dissociation for 5 min. at a flow rate of 30 μl/min each. […]

B1: mAb 5393: anti-LNA antibody produced by clone 1.9.21 in the bivalent standard Y-shaped IgG format (antibody, V domains shown)
VH: QVQLQQSGAELVRPGTSVKVSCKASGYAFTNYLIEWIKQRPGQGLEWIGVINPGSGGTNYNEKFRVKATLTADKSSSTAYMQLSSLTSDDSAVYFCARGGGYYWGQGTLVTVSA
VL: DIVMTQAAPSVPVTPGESVSISCRSSKSLLHSNGNTYLFWFLQRPGQSPQVLIYRMSNLASGVPDRFSGSGSGTAFTLRISRVEAEDVGVYYCMQHLEYPYTFGSGTRLEIK
B1: the Kon entry in data set [1] (oos = out of specification) is “oos”. The Kd in data set [1] (read-out: K) is less than 1000 pM; in data set [2] (read-out: K), 26200 pM; in data set [3], 37.9 pM; in data set [4] (read-out: K) it was 41.4 pM; in data set [5] (read-out: K) it was 116 pM; in data set [6] (read-out: K), 169 pM. For the same molecule, the “binding to the tested analytes (ASOs and antibody-ASO conjugates)” value (shortened to “binding to the tested analytes”) in data set [7] was “binds to all of the tested ASOs and antibody-ASO conjugates with good affinity”.

B2: mAb 5392: anti-LNA antibody produced by clone 1.7.15 in the bivalent standard Y-shaped IgG format (antibody, V domains shown)
VH: QVQLKQSGPSFVQPSQSLSITCTVSGFSLTTYGVHWVRQSPGKGLEWLGVIWRSGGTDYNAAFMSRLSITKDNSKSQVFFKMNSLQTDDTAIYYCTNLYYWGQGTTLTVSS
VL: DIVMTQATFSNPVTLGTSVSISCRSSKSLLRSNGITYLYWYLQKPGQSPQLLIYQMSNLASGVPDRFSSSGSGTDFTLRISRVEAEDVGVYYCGQNLELPYTFGSGTKVEIK
As for B2, the K result is given as “no binding” in data set [1], “no binding” in data set [4], “no/low binding” in data set [5] and “no/low binding” in data set [6]. Also, the Koff result in data set [2] (oos = out of specification) is reported as “oos”. Besides, the Kd in data set [3] is 198000 pM. Also, in data set [7], the “binding to the tested analytes” value is reported as “binds to some of the ASOs, while showing no or very low binding to other ASOs”.

B3: mAb 5391: anti-LNA antibody produced by clone 1.2.8 in the bivalent standard Y-shaped IgG format (antibody, V domains shown)
VH: QIQLRESGPGLVAPSQSLSITCTVSGFSLTNYGVHWVRQPPGKGLEWLGVIWAGGSTIYNSALMSRLSISRDNSKSQVFLEMNSLQTYDTAMYYCARDRPFDGFFFSYWGQGTALTVSS
VL: DVLMTQTPLSLPVSLGDQASISCRSSQAIVHRSGNTFLEWYLQKPGQSPKLLIYKVSNRFSGVPDRFSGSGSGTDFTLKINRVEAEDLGVYYCFQGSHVPYTFGSGTKLEIK
Consider B3, for which the K entry is “no binding” in data set [1]; “no binding” in data set [2]; “no binding” in data set [3]; “no binding” in data set [4]; “no/low binding” in data set [5]; “no/low binding” in data set [6]. Also, the “binding to the tested analytes” value in data set [7] is “no to very low binding to all of the analytes tested”.
